According to US20250043290A1, “RNA SEQUENCES THAT INDUCE FLUORESCENCE OF SMALL MOLECULE FLUOROPHORES, MOLECULAR COMPLEXES, SENSORS, AND METHODS OF USE THEREOF” (CORNELL UNIVERSITY, priority 2021, published 2025):
“Also recorded” adds a separate entry of the source.

Legend:
[1] = On and off rates of aptamer binding to DFHO; details: 50 nM RNA
Procedure: (§1) FIGS. 7A-7H provide photophysical and biophysical characterization of Squash. […] Excess RNA was used to ensure binding of nearly all fluorophore. […] Data represent mean values±s.d. for n=3 independent experiments. […] The fluorescence signal trace was fitted with a monoexponential curve to extract kobs. kobs was plotted as a function of total RNA (50 nM RNA) and fluorophore concentration. kon and koff were extracted as the slope and intercept, respectively. Squash koff (0.014±0.008 s^−1) is very similar to that of Corn (0.018±0.002 s^−1). kon for Squash-DFHO (162300±8100 M^−1 s^−1) is seven-times higher than Corn-DFHO (23000±3000 M^−1 s^−1) which could be due to the high folding of Squash. […]
To measure on and off rates of Squash binding to DFHO, the same protocol that was reported previously to measure kinetic rates for Spinach-DFHBI was used (Han et al., “Understanding the Photophysics of the Spinach-DFHBI RNA Aptamer-Fluorogen Complex to Improve Live-Cell RNA Imaging,” J. Am. Chem. Soc. 135:19033-19038 (2013), which is hereby incorporated by reference in its entirety). Briefly, 50 nM RNA was mixed with different amounts of DFHO and binding kinetics was monitored on the fluorimeter as fluorescence signal increases. Each fluorescence signal trace was fitted with a monoexponential curve and the observed rate constant (kobs) was extracted. […]

[2] = Kd measurements for Broccoli and Squash binding to BI; details: 50 nM RNA
Procedure: as §1
Dissociation constants (Kd) for the RNA-fluorophore complexes were determined as described previously (Paige et al., “RNA Mimics of Green Fluorescent Protein,” Science 333:642-646 (2011) and Filonov et al., “Broccoli: Rapid Selection of an RNA Mimic of Green Fluorescent Protein by Fluorescence-Based Selection and Directed Evolution,” J. Am. Chem. Soc. 136: 16299-16308 (2014), which are hereby incorporated by reference in their entirety). In brief, the RNA aptamer at a fixed concentration (50 nM) was titrated with increasing fluorophore concentration and the resulting increase in fluorescence was recorded. […]

[3] = Potassium-dependence assay; type: physicochemical; details: buffers with K+, Na+ or Li+
Procedure: For potassium-dependence assay, separate buffers were prepared for K^+, Na^+ and Li^+. HEPES solution was neutralized with KOH, NaOH or LiOH to generate a 1 M solution (pH 7.4). RNA (1 μM final) was diluted in a buffer containing 40 mM HEPES (pH 7.4) and 0.5 mM MgCl2. Then the salts (KCl, NaCl or LiCl) were added to a final concentration of 100 mM to the corresponding solutions. Finally, DFHBI-1T or DFHO was added to the RNA solution at a final concentration of 10 μM and incubated for 20 minutes. The fluorescence was measured on a FluoroMax-4 fluorimeter.

[4] = Photophysical properties of fluorophores and RNA-fluorophore complexes (Squash study); type: physicochemical
Summary of the method: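 Gel-purified RNAs in 40 mM HEPES-KOH pH 7.4, 100 mM KCl, 0.5 mM MgCl2, with RNA in excess over fluorophore for absorption, excitation and emission spectra. Quantum yields used 10 μM RNA and 0.2 μM fluorophore, from integrated emission versus Broccoli-DFHBI-1T or Corn-DFHO.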

B1: Squash: fluorogenic RNA aptamer evolved from the add A-riboswitch aptamer, binds DFHBI-1T and DFHO; SEQ ID NO: 12 (SEQ ID NO: 1) (nucleic acid)
chain: AGGUGAGCCCAAUAAUACGGUUUGGGUUAGGAUAGGAAGUAGAGCCGUAAACUCUCUAAGCG
modifications: RNA, backbone not given here
- koff [1]: 0.014 ± 0.008 s⁻¹
- Affinity for BI [2]: much weaker affinity than Broccoli
- Fluorescence dependence on K+ [3]: fluorescent in K^+-free buffers; also recorded: not dependent on potassium
- Quantum yield with DFHBI-1T [4]: 0.71
- Quantum yield with DFHO [4]: 0.60
- Emission maxima with DFHO ([4]; 10 μM RNA, 1 μM DFHO): 562 nm
- Abs max in complex with DFHBI-1T ([4]; 50 μM RNA, 5 μM DFHBI-1T): 450 nm
